{
  "source": "paper PMC7162537",
  "target": "BRCA1 (UniProt P38398)",
  "test": "anti-HA co-IP from nuclear extract, blot",
  "settings": "reference: wild type FANCJ; sites S990",
  "data": [
    {"substance": "FANCJ (from UniProt Q9BX63) S990A", "values": [
      {"measurement": "binding against the reference", "value": "lost"}
    ]}
  ]
}
